Laboratory results as given in the Human Domainome abundance scans (Beltran et al. 2025).
± gives the uncertainty stated by the source.

B1: Formin-binding protein 4, residues 200 to 261; numbered along this chain, Q8N3X1 (parent)
chain: SGWQYDTQCSLAGVGIEMGDWQEVWDENTGCYYYWNTQTNEVTWELPQYLATQVQGLQHYQP

Variants of: B1
Assay: abundance fitness (aPCA) (normalised: wild type 0, dead -1); higher = more abundant; growth selection in yeast, the domain comes from the species named
Settings: Homo sapiens

Abundance fitness: each site, then its substitutions
G56: H -0.186 ± 0.17; W -0.16 ± 0.11; N 0.051 ± 0.12; V -0.219 ± 0.078; L -0.209 ± 0.058; Q 0.076 ± 0.09; M -0.367 ± 0.11; Y -0.401 ± 0.15; F -0.464 ± 0.12; E 0.224 ± 0.086; T 0.015 ± 0.088; A -0.018 ± 0.078; I -0.425 ± 0.13; P -0.178 ± 0.089; R 0.004 ± 0.066; C -0.255 ± 0.13; S -0.031 ± 0.06; D 0.177 ± 0.091
A51: S -0.178 ± 0.078; T -0.306 ± 0.13; E -0.3 ± 0.1; L -0.323 ± 0.083; D -0.388 ± 0.12; K -0.025 ± 0.12; I -0.703 ± 0.19; H -0.308 ± 0.28; M -0.245 ± 0.14; G -0.346 ± 0.072; C -0.145 ± 0.11; V -0.237 ± 0.097; N -0.237 ± 0.33; Y -0.124 ± 0.16; P -0.752 ± 0.16; W -0.175 ± 0.091; Q -0.519 ± 0.13; R -0.087 ± 0.065
Y60: A 0.115 ± 0.068; C 0.035 ± 0.077
L50: W -0.48 ± 0.11; M -0.52 ± 0.13; F -0.716 ± 0.13; E -0.488 ± 0.13; Q -0.7 ± 0.13; K -0.719 ± 0.17; Y -0.738 ± 0.17; T -0.704 ± 0.16; R -0.82 ± 0.091; H -0.732 ± 0.22; N -1.06 ± 0.38; I -0.214 ± 0.1; S -0.613 ± 0.094; G -0.767 ± 0.096; P -0.741 ± 0.14
Q58: T -0.139 ± 0.093; Y -0.256 ± 0.16; W -0.421 ± 0.091; C -0.293 ± 0.12; N 0.083 ± 0.14; M -0.067 ± 0.086; P -0.209 ± 0.11; E -0.059 ± 0.088; K 0.127 ± 0.093; H -0.005 ± 0.14; L -0.36 ± 0.072; A -0.019 ± 0.075; R -0.242 ± 0.066; G -0.086 ± 0.056; F -0.195 ± 0.091
V54: D -0.644 ± 0.16; R -0.625 ± 0.086; I 0.1 ± 0.093; H -0.716 ± 0.19; Y -0.274 ± 0.17; E -0.741 ± 0.15; M 0.055 ± 0.094; Q -0.754 ± 0.16; S -0.603 ± 0.092; P -0.741 ± 0.16; N -0.48 ± 0.19; T -0.403 ± 0.11; F -0.214 ± 0.099; G -0.546 ± 0.07; L -0.094 ± 0.066; A -0.336 ± 0.088; K -0.589 ± 0.14
T52: S 0.008 ± 0.067; Q -0.202 ± 0.091; G 0.038 ± 0.074; K 0.335 ± 0.11; W -0.295 ± 0.097; L -0.064 ± 0.057; A 0.085 ± 0.071; V -0.011 ± 0.067; R 0.034 ± 0.062; Y -0.248 ± 0.13; I 0.029 ± 0.12; M -0.218 ± 0.11; N -0.028 ± 0.15; P -0.486 ± 0.12; D 0.301 ± 0.11
Q55: K -0.173 ± 0.087; M -0.102 ± 0.085; T -0.18 ± 0.092; F -0.018 ± 0.17; W 0.039 ± 0.081; V -0.173 ± 0.083; P -0.647 ± 0.11; S -0.177 ± 0.077; Y -0.389 ± 0.16; C 0.121 ± 0.18; L -0.184 ± 0.064; I -0.321 ± 0.17; D -0.005 ± 0.19; R -0.12 ± 0.064; H -0.482 ± 0.26; A -0.012 ± 0.084; E -0.268 ± 0.099; N -0.186 ± 0.19
H59: N 0.033 ± 0.12; S -0.029 ± 0.06; G -0.017 ± 0.076; Q 0.083 ± 0.084; L -0.083 ± 0.052; K 0.188 ± 0.078; M 0.082 ± 0.067; T 0.147 ± 0.07; Y -0.296 ± 0.08; A 0.008 ± 0.073; E 0.137 ± 0.079; F -0.062 ± 0.084; P -0.115 ± 0.077; I 0.045 ± 0.097; R -0.125 ± 0.062
L57: W -0.349 ± 0.078; Y -0.315 ± 0.13; G -0.15 ± 0.061; H -0.084 ± 0.1; E -0.093 ± 0.087; C -0.305 ± 0.12; R -0.029 ± 0.056; P -0.075 ± 0.086; F 0.02 ± 0.1; K 0.312 ± 0.083; V -0.047 ± 0.063; Q 0.047 ± 0.078; I -0.136 ± 0.12; N -0.212 ± 0.1; S -0.084 ± 0.073; D -0.043 ± 0.12; M -0.159 ± 0.086
Q53: V -0.679 ± 0.099; E -0.588 ± 0.14; H -0.68 ± 0.17; F -0.621 ± 0.13; G -0.688 ± 0.12; K -0.188 ± 0.13; D -0.314 ± 0.16; T -0.606 ± 0.12; A -0.407 ± 0.11; R -0.215 ± 0.086; S -0.765 ± 0.13; L -0.457 ± 0.073; C -0.738 ± 0.27; M -0.624 ± 0.14; W -0.634 ± 0.22; I -0.611 ± 0.19; P -0.663 ± 0.15
